Where two headings read alike, the source gives them in different places.
Tests used:
Rad30 [1] = target: T1, Rad30 (S. cerevisiae, UniProt Q04049 1-632); assay: two-hybrid
T1 sequence (looked up): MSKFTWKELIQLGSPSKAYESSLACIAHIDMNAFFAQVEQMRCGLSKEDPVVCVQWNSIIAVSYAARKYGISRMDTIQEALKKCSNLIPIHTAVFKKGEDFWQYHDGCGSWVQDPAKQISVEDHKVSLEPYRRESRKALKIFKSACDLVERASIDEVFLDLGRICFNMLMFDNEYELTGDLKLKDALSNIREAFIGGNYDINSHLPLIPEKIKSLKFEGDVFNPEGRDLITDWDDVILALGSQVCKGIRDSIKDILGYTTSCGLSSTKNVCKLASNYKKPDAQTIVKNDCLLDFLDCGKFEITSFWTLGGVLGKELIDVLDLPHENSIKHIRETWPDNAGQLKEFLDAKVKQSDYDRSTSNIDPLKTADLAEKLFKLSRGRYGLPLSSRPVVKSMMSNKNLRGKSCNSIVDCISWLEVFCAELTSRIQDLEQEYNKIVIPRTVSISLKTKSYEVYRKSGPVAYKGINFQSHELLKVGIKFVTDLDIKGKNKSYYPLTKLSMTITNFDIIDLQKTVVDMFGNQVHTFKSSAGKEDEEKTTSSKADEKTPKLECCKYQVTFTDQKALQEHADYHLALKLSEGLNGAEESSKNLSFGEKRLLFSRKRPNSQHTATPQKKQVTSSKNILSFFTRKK

Rad30 [2] = target: T1, Rad30; assay: two-hybrid; remark: listed apart in the source

B1: Rev1 (enzyme, S. cerevisiae, UniProt P12689 1-985, looked up)
chain: MGEHGGLVDLLDSDLEYSINRETPDKNNCLSQQSVNDSHLTAKTGGLNARSFLSTLSDDSLIEYVNQLSQTNKNNSNPTAGTLRFTTKNISCDELHADLGGGEDSPIARSVIEIQESDSNGDDVKKNTVYTREAYFHEKAHGQTLQDQILKDQYKDQISSQSSKIFKNCVIYINGYTKPGRLQLHEMIVLHGGKFLHYLSSKKTVTHIVASNLPLKKRIEFANYKVVSPDWIVDSVKEARLLPWQNYSLTSKLDEQQKKLDNCKTVNSIPLPSETSLHKGSKCVGSALLPVEQQSPVNLNNLEAKRIVACDDPDFLTSYFAHSRLHHLSAWKANLKDKFLNENIHKYTKITDKDTYIIFHIDFDCFFATVAYLCRSSSFSACDFKRDPIVVCHGTKNSDIASCNYVARSYGIKNGMWVSQAEKMLPNGIKLISLPYTFEQFQLKSEAFYSTLKRLNIFNLILPISIDEAVCVRIIPDNIHNTNTLNARLCEEIRQEIFQGTNGCTVSIGCSDSLVLARLALKMAKPNGYNITFKSNLSEEFWSSFKLDDLPGVGHSTLSRLESTFDSPHSLNDLRKRYTLDALKASVGSKLGMKIHLALQGQDDEESLKILYDPKEVLQRKSLSIDINWGIRFKNITQVDLFIERGCQYLLEKLNEINKTTSQITLKLMRRCKDAPIEPPKYMGMGRCDSFSRSSRLGIPTNEFGIIATEMKSLYRTLGCPPMELRGLALQFNKLVDVGPDNNQLKLRLPFKTIVTNRAFEALPEDVKNDINNEFEKRNYKRKESGLTSNSLSSKKKGFAISRLEVNDLPSTMEEQFMNELPTQIRAEVRHDLRIQKKIQQTKLGNLQEKIKRREESLQNEKNHFMGQNSIFQPIKFQNLTRFKKICQLVKQWVAETLGDGGPHEKDVKLFVKYLIKLCDSNRVHLVLHLSNLISRELNLCAFLNQDHSGFQTWERILLNDIIPLLNRNKHTYQTVRKLDMDFEV
fold change in reporter activity over the highest negative control (Rad30 [1]): 3.07 fold | fold change in reporter activity over the highest negative control (Rad30 [2]): 1.47 fold

— PMC3618350 (G3: Genes|Genomes|Genetics, 2013)
